Test results published in US8216581 (University of Pennsylvania, dated 2012).
Changes are numbered by the printed parent chain.

B1: H46L16 (Fab, V domains shown)
VH: QVQLVESGGGVVQPGRSLRLSCAASGFTFSNFNMHWVRQAPGKGLEWVALISYDGSNKNYADSVKGRFTISRDNSKNTLFLQMNSLRAEDTAVYYCMVVGAFDYWGQGTLVTVSS
VL: DIQMTQSPSSLSASVGDRVTITCRASQGISSYLAWYQQKPGKVPKLLIYAASTLQSGVPSRFSGSGSGTDFTLTISSLQPEDVATYYCQKYNSAPLTFGGGTKVEIK
notes: Soluble Fab, ITP patient A, clone A
B2: H48L24 (Fab, V domains shown)
VH: QVQLVESGGGVVQPGRSLRLSCAASGFTISNYHIHWVRQAPGKGLEWVAFISYDGSNKYYADSVKGRFTISRDNSKNTLFLQMNSLTTEDTAVYYCAIVGPFDYRGQGTLVTVSS
VL: DIQLTQSPTFLSASVGDRVTITCRASQGISRYLAWYQQKPGKAPKLLIYAASTLQSGVPSRFSGSGSGTDFTLTFSSLQPEDFATYYCQQLNSYPFTFGGGTTVEIK
notes: Soluble Fab, clone A
B3: H40L36 (Fab, V domains shown)
VH: QVQLVESGGGVVQPGRSLRLSCAASTFTFSNYAMHWVRQAPGKGLEWVAVISYDGSNKYYADSVKGRFTISRDNSKNTLYLQMNSLRPEDTAVYYCARGGVAAFDYWGQGTLVTVSS
VL: not shown
notes: Soluble Fab
B4: H36L35 (Fab, V domains shown)
VH: B3 VH with T26G, N31S
VL: not shown
notes: Soluble Fab
B5: H37L41 (Fab, V domains shown)
VH: B3 VH with T26G
VL: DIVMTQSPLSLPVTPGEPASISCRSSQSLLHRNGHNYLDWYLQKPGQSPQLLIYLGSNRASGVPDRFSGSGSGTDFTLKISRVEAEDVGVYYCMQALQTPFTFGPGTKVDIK
notes: Soluble Fab
B6: H37L44 (Fab, V domains shown)
VH: B3 VH with T26G
VL: DIVMTQSPVSLAVTPGEPASISCRSSQSLLHSNGYNYLDWYLQKPGQSPQLLIYLGSTRASGVPDRFSGSGSGTDFTLKINRVEAEDVGVYYCMQALQSPFTFGGGTKVEIK
notes: Soluble Fab
B7: H37L45 (Fab, V domains shown)
VH: B3 VH with T26G
VL: B6 VL with E110Q
notes: Soluble Fab
B8: H37L47 (Fab, V domains shown)
VH: B3 VH with T26G
VL: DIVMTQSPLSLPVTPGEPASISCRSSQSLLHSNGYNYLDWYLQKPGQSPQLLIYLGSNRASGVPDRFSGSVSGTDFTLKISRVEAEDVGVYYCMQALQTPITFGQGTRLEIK
notes: Soluble Fab
B9: H37L48 (Fab, V domains shown)
VH: B3 VH with T26G
VL: not shown
notes: Soluble Fab
B10: H38L39 (Fab, V domains shown)
VH: B3 VH with T26G, A102G
VL: DIVMTQSPPSLPVTPGEPASISCRSSQSLLHTNGYNYLDWYLQKPGQSPQLLIYLGSNRASGVPDRFSGSGSGTDFTLTISRVEAEDVGVFYCMQALEPPYTFGQGTKLEIK
notes: Soluble Fab
B11: H38L54 (Fab, V domains shown)
VH: B3 VH with T26G, A102G
VL: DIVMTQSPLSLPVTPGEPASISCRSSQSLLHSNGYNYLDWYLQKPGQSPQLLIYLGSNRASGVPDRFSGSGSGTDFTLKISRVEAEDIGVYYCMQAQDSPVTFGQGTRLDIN
notes: Soluble Fab
B12: H40L42 (Fab, V domains shown)
VH: B3 VH
VL: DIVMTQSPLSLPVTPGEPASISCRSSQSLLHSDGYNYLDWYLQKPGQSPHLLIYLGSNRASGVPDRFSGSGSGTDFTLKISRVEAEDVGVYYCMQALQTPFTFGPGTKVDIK
notes: Soluble Fab
B13: H40L52 (Fab, V domains shown)
VH: B3 VH
VL: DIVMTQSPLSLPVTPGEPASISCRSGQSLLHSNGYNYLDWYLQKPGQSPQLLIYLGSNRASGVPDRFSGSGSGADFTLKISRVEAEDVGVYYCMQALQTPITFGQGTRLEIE
notes: Soluble Fab
B14: H40L53 (Fab, V domains shown)
VH: B3 VH
VL: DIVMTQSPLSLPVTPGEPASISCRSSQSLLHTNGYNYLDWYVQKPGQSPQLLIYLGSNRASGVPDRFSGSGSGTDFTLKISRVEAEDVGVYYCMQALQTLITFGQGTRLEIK
notes: Soluble Fab
B15: H41L51 (Fab, V domains shown)
VH: B3 VH with T26G, F27S, N31Y
VL: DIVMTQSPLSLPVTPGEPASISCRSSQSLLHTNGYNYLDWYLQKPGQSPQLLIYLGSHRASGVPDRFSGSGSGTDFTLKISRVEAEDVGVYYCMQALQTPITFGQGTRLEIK
notes: Soluble Fab
B16: H42L38 (Fab, V domains shown)
VH: B3 VH with G10A, V11M, T26G, T28P
VL: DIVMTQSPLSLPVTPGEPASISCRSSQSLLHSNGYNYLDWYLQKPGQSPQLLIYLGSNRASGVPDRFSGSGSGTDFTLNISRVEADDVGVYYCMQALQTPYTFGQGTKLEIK
notes: Soluble Fab
B17: H83L34 (Fab, V domains shown)
VH: QVQLQESGPGLVKPSETLSLTCTVSGGSISSYYWSWIRQPPGKGLEYIGYIYYSGSTDYNPSLKSRVTISVDTSENQFSLKLSSVTAADTAVYYCARSPPVIRPAMDVWGQGTTVTVSS
VL: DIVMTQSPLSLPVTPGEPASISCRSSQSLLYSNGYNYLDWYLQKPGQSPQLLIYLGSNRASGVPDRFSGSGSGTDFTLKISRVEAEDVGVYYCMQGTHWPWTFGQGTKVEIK
notes: Soluble Fab
B18: H39L43 (Fab, V domains shown)
VH: QVQLVESGGGVVQPGRSLRLSCAASGFTFSNYAMHWVRQAPGKGLEWVAVISYDGSNKYYADSVKGRFTISRDNSKNTLYLQMNSLRPEDTAVYYCARGGVAAFDYWGQGTLVTV
VL: not shown
notes: Soluble Fab
B19: H39L37 (Fab, V domains shown)
VH: B18 VH
VL: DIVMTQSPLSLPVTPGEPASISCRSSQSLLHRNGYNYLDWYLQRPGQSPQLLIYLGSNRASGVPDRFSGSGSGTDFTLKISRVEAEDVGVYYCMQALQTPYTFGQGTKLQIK
notes: Soluble Fab
B20: H39L44 (Fab, V domains shown)
VH: B18 VH
VL: B6 VL
notes: Soluble Fab
B21: H39L46 (Fab, V domains shown)
VH: B18 VH
VL: DIVMTQSPLSLPVTPGEPASISCRSSQSLLHSNGNNYLDWYLQKPGQSPQLLIYLASNRASGVPDRFSGSGSGTDFTLKISRVEPEDVGLYYCMQALQTPLTFGGGSKVEIK
notes: Soluble Fab
B22: H37L40 (Fab, V domains shown)
VH: B3 VH with T26G
VL: DIVMTQSPLSLSVSPGEPASISCRSSQSLLDSNGHNFLDWYLQKPGQSPQLLIFVGSYRALGVPDRFTGSGTGTDFTLKISRVEPEDVGVYYCMQGLQAPITFGQGTKLDIK
notes: Soluble Fab
B23: H38L49 (Fab, V domains shown)
VH: B3 VH with T26G, A102G
VL: not shown
notes: Soluble Fab
B24: H37L50 (Fab, V domains shown)
VH: B3 VH with T26G
VL: not shown
notes: Soluble Fab, clone B
B25: H38L55 (Fab, V domains shown)
VH: B3 VH with T26G, A102G
VL: DIVMTQSPLSLPVTPGEPASISCRSNQSVLHSNGRHYLDWYLQKPGQSPQLLIYMVFNRASGVPDRFSGSGSGTDFTLKISRVESEDVGVYYCMQAQQTPVTFGQGTRLDIK
notes: Soluble Fab
B26: H45L61 (Fab, V domains shown)
VH: B1 VH with N57S, N59Y, A61T, F80Y, A88P
VL: EIVLTQSPGTLSLSPGERATLSCRASQSVGSSYLAWYQQKPGQAPRLLIYGVSSRATGIPDRFSGSGSGTDFTLTISRLEPEDFAVYYCQQYGGSPLTFGGGTTVEIK
notes: Soluble Fab, clone A
B27: H47L63 (Fab, V domains shown)
VH: B1 VH with A24T, D62N, A88V
VL: EIVLTQSPGTLSLSPGERATLSCRASQSVGNNYLAWYQQRPGRAPRLVMYDPSSRATGIPDRFSGSGSGTDFTLTISRLEPEDFAVYYCQQYGNSPPTFGGGTKVEIK
notes: Soluble Fab, clone A
B28: H47L64 (Fab, V domains shown)
VH: B1 VH with A24T, D62N, A88V
VL: EIVLTQSPDTLSLSPGDRATLSCRASQSVSNYLAWYQQKAGRAPSLLIYGTSRRATDIPDRFSGSGSGTDFTLTISRLEPEDSAVYYCQQYGSASLTFGGGTKVEIK
notes: Soluble Fab, clone A; also called putative GPIb/IX-specific Fab
B29: H38L72 (Fab, V domains shown)
VH: B3 VH with T26G, A102G
VL: EIVLTQSPATLSVSPGERATLSCRASQSVSSYLAWYQQKPGQAPRLLIYDASNRATGIPARFSGSGSGTDFTLTISSLEPEDFAVYYCQQRSNWPLTFGQGTKVEIK
notes: Soluble Fab
B30: H38L75 (Fab, V domains shown)
VH: B3 VH with T26G, A102G
VL: B29 VL with V13L, S30R, Y32F, A51T, N53K, A55P, A60D, N93S, Q100G, K103T
notes: Soluble Fab
B31: H38L74 (Fab, V domains shown)
VH: B3 VH with T26G, A102G
VL: EIVLTQSPATLSLSPGERATLSCRASQSVSSYLAWYQQKPGQAPRLLIYDASNRATGIPARFSGSGSGTDFTLTISSLEPEDFAVYYCQQRSNWPTFGGGTKVEIK
notes: Soluble Fab
B32: H38L76 (Fab, V domains shown)
VH: B3 VH with T26G, A102G
VL: not shown
notes: Soluble Fab

Assays:
[1] = biological target: T1, GPIa/IIa on a stable K562 cell line (UniProt P17301 30-1181; P05556 21-798, limits assumed); assay: flow cytometry on K562 cells expressing GPIa/IIa
T1 construct: whole, on cells; also called K562 cell line expressing GPIa/IIa

[2] = biological target: T2, GPIIb/IIIa on intact human platelets (human, UniProt P08514 32-1039; P05106 27-788); assay: immunoprecipitation from biotinylated platelets; agrees with ELISA and Glanzmann platelet flow cytometry;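 note: precipitated biotin-labelled platelet membrane proteins visualized with biotinylated horseradish peroxidase-avidin complexes, scored for polypeptides behaving like GPIIb/IIIa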
T2 construct: whole, on cells; also called platelet GPIIb/IIIa; αIIbβ3
Text: Precipitated, biotinylated platelet membrane proteins were detected with biotinylated horseradish peroxidase-avidin complexes (ABC Staining Kit, Pierce).

Binder	binding result [1]	binding result [2]
B1	no binding	no binding
B2	no binding	no binding
B3	no binding	no binding
B4	no binding	no binding
B5	no binding	no binding
B6	no binding	no binding
B7	no binding	no binding
B8	no binding	no binding
B9	no binding	no binding
B10	no binding	no binding
B11	no binding	no binding
B12	no binding	no binding
B13	no binding	no binding
B14	no binding	no binding
B15	no binding	no binding
B16	no binding	no binding

Binder	binding result [1]	binding result [2]
B17	no binding	no binding
B18	no binding	no binding
B19	no binding	no binding
B20	no binding	no binding
B21	no binding	no binding
B22	no binding	no binding
B23	no binding	no binding
B24	no binding	no binding
B25	no binding	no binding
B26	no binding	no binding
B27	no binding	no binding
B28	no binding	no binding
B29	no binding	no binding
B30	no binding	no binding
B31	no binding	no binding
B32	no binding	no binding
